Assay: yeast display, Sf9 membrane polyspecificity reagent, FACS + sequencing; frameworks hold sequencing errors
Summary of the method: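 Nanobodies came from a synthetic yeast display library in Saccharomyces cerevisiae BJ5465, induced with galactose for 36–48 hours and stained for 1 hour at 4 °C with 10% biotinylated, detergent-solubilized Sf9 membrane reagent. Cells were enriched on streptavidin microbeads and then FACS-sorted, with low and high (top ~1%) gates set on anti-HA fluorescence for expression and streptavidin fluorescence for reagent binding. Each polyreactivity label reflects the gate a clone came from. Genes were amplified by colony PCR, sequenced by MiSeq 2 × 250 and filtered by CDR length.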

Row | Sequence | polyreactivity (PSR sort gate)
1 | QVQLVESGGGLVQAGGSLRLSCAASGSTFGRYAMGWYRQAPGKEREFVAGITGRGGSTYYADSVKGRFTISRDNAKNTVYLQMNSLKPEDTAVYYCAAGYRVGYLRAGDYWGQGTQVTVSS | high polyreactivity
2 | QVQLVESGGGLVQAGGSLRLSCAASGSTFGRYAMGWYRQAPGKERELVAAINSRGGRKYYADSVKGRFTISRDNAKNTVYLQMNSLIPEDTAVYYCAAPTGPNGYYSDRGDSWGQGTQLTVSS | low polyreactivity
3 | QVQLVESGGGLVQAGGSLRLSCAASGSTFGRYAMGWYRQAPGKERELVAAISESDGSTYYADSVKGRFTISRDNAKNTVYLQMNSLKPEDTAVYYCAAEWTHYWWYQYDYWGQGTQVTVSS | high polyreactivity
4 | QVQLVESGGGLVQAGGSLRLSCAASGSTFGRYDMGSYRQAPGKERELVAAISRSGGGTYYADSVKGRFTISRDNAKNTVYLQMNSLKPEDTAVYYCAADYRDYPDSAYYYWGQGTQVTVSS | low polyreactivity
5 | QVQLVESGGGLVQAGGSLRLSCAASGSTFGRYVMGWYRQAPGKEWELVAAISKNAGSTYYADSVKGRFTISRDNAKNTVYLQMNSLKPEDTAVYYCAADWRTKGYDSLGQGTQVTVSS | high polyreactivity
6 | QVQLVESGGGLVQAGGSLRLSCAASGSTFGSNAMGWYRQAPGKERELVAAIDANGGSTYYADSVKGRFTISRDNAKNTVYLQMNSLKPEDTAVYYCAAAGYWYYYVPNDYWGQGTQVTVSS | low polyreactivity
7 | QVQLVESGGGLVQAGGSLRLSCAASGSTFGSNAMGWYRQAPGKERELVAAITGGDVSTYYADSVKGRFTISRDNAKNTVYLQMNSLKPEDTAVYYCNAEYARPAMDYWGQGTQVTVSS | low polyreactivity
8 | QVQLVESGGGLVQAGGSLRLSCAASGSTFGSYAMGWYIQAPGKERELVAAINWSGGITYYADSVKGRFTISRDNAKNTVYLQMNSLKPEDTAVYYCAADTRTYYYGSTYDYEYWGQGTQVTVSS | low polyreactivity
9 | QVQLVESGGGLVQAGGSLRLSCAASGSTFGSYAMGWYRQAPGKERELVAAISRGGGSTYYADSVKGRFTISRDNAKNTVYLQMNSLKPEDTAVYYCAATAQNDSRYGSRYYYWGQGTQVTVSS | high polyreactivity
10 | QVQLVESGGGLVQAGGSLRLSCAASGSTFGSYAMGWYRQAPGKERELVAGISWSGGRTYYADSVKGRFTISRDNAKNTVYLQMNSLKPEDTAVFYCALDTGYYYARYNFWGQGTKVTVSS | low polyreactivity
11 | QVQLVESGGGLVQAGGSLRLSCAASGSTFGTNAMGRYRQAPGKERELVAVITFSGGSTYYADSVKGRFTISRDNAKNTVYLQMNSLKPEDTAVYYCAKDGFITFVYDHDYWGQGTQVTVSS | low polyreactivity
12 | QVQLVESGGGLVQAGGSLRLSCAASGSTFGTNAMGWYRQAPGKERELVAAITKSGGSTYADSVKGRFTISRDNAKNTVYLQMNSLKPEDTAVYYCAAPNRYSVPMYYWGQGTQVTVSS | low polyreactivity
13 | QVQLVESGGGLVQAGGSLRLSCAASGSTFGTNDMGWYRQAPGKEREFVASIDWSGDSTNYADSVKGRFTISRDNAKNTVYLQMNSLKPEDTAVYYCAARVFPPSRHDYWGQGTQVTVSS | high polyreactivity
14 | QVQLVESGGGLVQAGGSLRLSCAASGSTFGTNVMGWYRQAPGKERELVAAISGRGGRTYYADSVKGRFTISRDNAKNTVYLQMNSLKPEDTAVYYCAAPRYYSREYDYWGQGTQVTVSS | high polyreactivity
15 | QVQLVESGGGLVQAGGSLRLSCAASGSTFGTYAMGWYRQAPGKERELVADITGSGGSTYYADSVKGRFTISRDNAKNTVYLQMNSLKPEDTAVYYCAAEYGLGDDTAYGYWGQGTQVTVSS | low polyreactivity
16 | QVQLVESGGGLVQAGGSLRLSCAASGSTFGVNAKGWYREAPGKERELVAGITSSGGSTYYADSVKGRFTTSRDNAKNTVYLQMNSLKPEDTAVYYCAARWIPASYGYGYWGQGTQVTVSS | low polyreactivity
17 | QVQLVESGGGLVQAGGSLRLSCAASGSTFGVNAMGWYRQAPGKERELVAAIDADGGITYYADSVKGRFTISRDNAKNTVYLQMNILKPEDTAVYYCAARVAVYFSYGSPYWYEYDYWGQGTQVTVSS | low polyreactivity
18 | QVQLVESGGGLVQAGGSLRLSCAASGSTFGVNAMGWYRQAPGKERELVAAISVSGGRTYYADSVKGRFTISRDNAKNTVYLLMNSLKPEDTAVYYCAATTYIWPYDYWGQGTQVTVSS | low polyreactivity
19 | QVQLVESGGGLVQAGGSLRLSCAASGSTFGVNAMGWYRQAPGKERELVAGISVDDSTTYYADSVKGRFTISRDNAKNTVYLQMNSLIPEDTAVYYCAAEREKTLYYLSRFDYWGQGTQVTVSS | low polyreactivity
20 | QVQLVESGGGLVQAGGSLRLSCAASGSTFGVNAMGWYRQAPGKERELVASISSGGGTYYADSVKGRFTISRDNAKNTVYLQMNSLKPEDTAVYYCAAVYYWYDSYAGYDYWGQGTQVTVSS | low polyreactivity
21 | QVQLVESGGGLVQAGGSLRLSCAASGSTFGVNDMGWYRQAPGKERELVAAISRGAITNYADSVKGRFTISRDNAKNTVYLQMNSLKPEDTAVYYCAAGFVTYYVPQYKEYGYDYWGQGTQVTVSS | low polyreactivity
22 | QVQLVESGGGLVQAGGSLRLSCAASGSTFGVYALGWYIPAPGKERELVDRITWSGGSTYYADSVKGRFTISRDNAKNTVYLQMNSLKPEDTAVFYCAARAWWDWYSPLWYYYWGQGTQVTVSS | high polyreactivity

Row | Sequence | polyreactivity (PSR sort gate)
23 | QVQLVESGGGLVQAGGSLRLSCAASGSTFGVYAMGWYRQAPAKEMELVARITWSGGSTDYADSVKGRFTISRDNAKNTVYLQMNSLKPEDTAVYYCAARAWWDWYSPRWYYYWGQGTQVTVSS | high polyreactivity
24 | QVQLVESGGGLVQAGGSLRLSCAASGSTFGVYAMGWYRQAPGKERELVAAINYSGRTYYADSVKGRFTISRDNAKNTVYLQMNSLKPEDTAVYYCAARIIVDDVGTKYYYWGQGTQVTVSS | high polyreactivity
25 | QVQLVESGGGLVQAGGSLRLSCAASGSTFGVYAMGWYRQAPGKERELVAAISGSGGSTYYADSVKGRFTISRDNAKNTVYLQMNSLKPEDTAVYYCAAKVRHYYSASNYYYWGQGTQVTVSS | high polyreactivity
26 | QVQLVESGGGLVQAGGSLRLSCAASGSTFGVYAMGWYRQAPGKERELVAAISYTGGSTYYADSVKGRFTISRDNAKNTVYLQMNSLKPEDTAVYYCATRSRDQYSVSYRLDYWGQGTQVTVSS | low polyreactivity
27 | QVQLVESGGGLVQAGGSLRLSCAASGSTFGVYAMGWYRQAPGKERELVATITRSGGNTYYADSVKGRFTISRDNAKNTVYLQMNSLKPEDTAVYYCAARRLYGSQRGYWGQGTQVTVSS | high polyreactivity
28 | QVQLVESGGGLVQAGGSLRLSCAASGSTFGVYARGWYRQAPGKERELVAAIRDRGGSTYYADSVKGRFTISRDNAKNTVYLQMNSLKPEDTAVYYCATRTWWEYYYWGQGTQVTVSS | high polyreactivity
29 | QVQLVESGGGLVQAGGSLRLSCAASGSTFGVYARGWYRQAPGKERELVAAISSSTGSTYYADSVKGRFTISRDNEKNTVYLQMNSLKPEDTAVYYCAAAGYGKVRGDYWGQGTQVTVSS | low polyreactivity
30 | QVQLVESGGGLVQAGGSLRLSCAASGSTFGWNAMGWYRKAPGKERELVAAISSYGGITYYADSVKGRFTISRDNEKNTVYLQMNSLKPEDTAVYYCAAERDDDWVNYWGQVTQVTVSS | low polyreactivity
31 | QVQLVESGGGLVQAGGSLRLSCAASGSTFGWNAMGWYRQAPGKERDLVAAITGGGSTYYADSVKGRFTISRDNAKNTVYLQMNSLKPEDSAVYYCEGDYWGQGTQVTVSS | low polyreactivity
32 | QVQLVESGGGLVQAGGSLRLSCAASGSTFGWNAMGWYRQAPGKERELVAAITADDDDTYYADSVKGRFTISRDNAKNTVYLQMNSLKPEDTAVYYCATEKWFWYGDWYDYWGQGTQVTLSS | high polyreactivity
33 | QVQLVESGGGLVQAGGSLRLSCAASGSTFGWNAMGWYRQAPGKERELVAAITRGGRTTYADSVKGRFTISRDNAKNTVYLQMNSLKPEDTAVYYCAALHGRYPNRYDYWGQGTQVTVSS | low polyreactivity
34 | QVQLVESGGGLVQAGGSLRLSCAASGSTFGWYAMGWYRKAPGKERELVAAISTTGGRTYYADSVKGRFTISRDNAKNTVYLQMNSLKPEDTAVYYCNARGRRYVYSYGYDYWGQGTQVTVSS | high polyreactivity
35 | QVQLVESGGGLVQAGGSLRLSCAASGSTFGWYAMGWYRQAPGKERDFVASITSSTGSTYYADSVKGRFTISRDNAKNTVYLQMYSLKPEDTAVYYCAASYVYTFLSYLLEYDYWGQGTQVTVSS | high polyreactivity
36 | QVQLVESGGGLVQAGGSLRLSCAASGSTFGWYAMGWYRQAPGKERELVAAITSGGGTYYADSVKGRFTISRDNAKNTVYLQMNSLKPEVTAVYYCAADFVYSGWAPYDFWVTSYDYWGQGTQVTVSS | low polyreactivity
37 | QVQLVESGGGLVQAGGSLRLSCAASGSTFGWYAMGWYRQAPGKERELVASITSGGRTNYADSVKGRFTISRDNAKNTVYLQMNSLKTEDTAVYYCAKRVYGSNSLYDYWGQGTQVTVSS | low polyreactivity
38 | QVQLVESGGGLVQAGGSLRLSCAASGSTFGWYVMGWYRQAPGKERELVAAITTGGSTNYADSVKGRFTISRDHAKNSVYLQMNSLKPEDTAVYYCGKAVTEVIYRGVTEGAVDYWGQGTQVTVSS | low polyreactivity
39 | QVQLVESGGGLVQAGGSLRLSCAASGSTFGYNAMGWYRQAPGKERELVAAISWSGGSTYYADSVKGRFTISRDNAKNTVYLQMNSLKPEDTAVYYCAALTHYGGYGYTYDYWGQGTQVTVSS | low polyreactivity
40 | QVQLVESGGGLVQAGGSLRLSCAASGSTFGYNAMGWYRQAPGKERELVAAITWSGGSTYYADSVKGRFTISRDNAKNTFYFQMNSLKPEDTAVYYCAAEWGVGKSWLEYLLFYYWGQGTQVTVSS | low polyreactivity
41 | QVQLVESGGGLVQAGGSLRLSCAASGSTFGYNAMGWYRQAPGKERELVAAITYRGSTYYADSVKGRFTISRDNAKNTVYLQMNSLKPEDTAVYYCATQGARYYHTYGYWGQGTQVTVSS | low polyreactivity
42 | QVQLVESGGGLVQAGGSLRLSCAASGSTFGYNTMGWYREAPGKERELVAAITGTGRTNYADSVKGRFTISRDNAKNTVYLQMNSLKPEDTAVYYCNARQAGTRYKYGYYGRYYWGQGTQVTVSS | high polyreactivity
43 | QVQLVESGGGLVQAGGSLRLSCAASGSTFGYYAMGWYRQAPGKEMELVAAITSGASTNYADSVKGRFTISRDNAKNTVYLQMNSLKPEDTAVYYCAADFLSPAYRPSWYRFDYWGQGTQVTVSS | low polyreactivity

Source: the nanobody polyreactivity screen of Harvey et al. (2022)
